B1: Ec-IlvE: branched-chain-amino-acid transaminase from Escherichia coli, SEQ ID No. 60 (protein, listed as Escherichia coli)
chain: MTTKKADYIWFNGEMVRWEDAKVHVMSHALHYGTSVFEGIRCYDSHKGPVVFRHREHMQRLHDSAKIYRFPVSQSIDELMEACRDVIRKNNLTSAYIRPLIFVGDVGMGVNPPAGYSTDVIIAAFPWGAYLGAEALEQGIDAMVSSWNRAAPNTIPTAAKAGGNYLSSLLVGSEARRHGYQEGIALDVNGYISEGAGENLFEVKDGVLFTPPFTSSALPGITRDAIIKLAKELGIEVREQVLSRESLYLADEVFMSGTAAEITPVRSVDGIQVGEGRCGPVTKRIQQAFFGLFTGETEDKWGWLDQVNQ
B2: Ec-AspC: aspartate transaminase from E. coli, SEQ ID No. 64 (protein, listed as Escherichia coli)
chain: MFENITAAPADPILGLADLFRADERPGKINLGIGVYKDETGKTPVLTSVKKAEQYLLENETTKNYLGIDGIPEFGRCTQELLFGKGSALINDKRARTAQTPGGTGALRVAADFLAKNTSVKRVWVSNPSWPNHKSVFNSAGLEVREYAYYDAENHTLDFDALINSLNEAQAGDVVLFHGCCHNPTGIDPTLEQWQTLAQLSVEKGWLPLFDFAYQGFARGLEEDAEGLRAFAAMHKELIVASSYSKNFGLYNERVGACTLVAADSETVDRAFSQMKAAIRANYSNPPAHGASVVATILSNDALRAIWEQELTDMRQRIQRMRQLFVNTLQEKGANRDFSFIIKQNGMFSFSGLTKEQVLRLREEFGVYAVASGRVNVAGMTPDNMAPLCEAIVAVL

Legend:
Type in all cases: biochemical
[1] = transaminase activity on preferred amino acid (L), coupled dehydrogenase assay; conditions: superscript (L); 50 mM amino acid; 2-oxoglutarate as acceptor
Description: (§1) Enzymatic assays: Transaminase activity of several candidate aminotransferases was quantified with 2-oxoglutarate as the amino group acceptor. Transaminase reactions were carried out using homoserine and the preferred amino acid of the enzymes. The reactions were followed by the amino acid-dependent oxidation of NADH in the coupled dehydrogenase reaction.
(§2) Transaminase Assays (Reaction Scheme)
(§3) Transaminase: Amino acid+2-oxoglutarate→2-oxo-acid+glutamate
(§4) Dehydrogenase: 2-oxo-acid+NADH→2-hydroxy-acid+NAD^+
(§5) The reaction mixture contained 60 mM Hepes (pH 7), 50 mM potassium chloride, 5 mM MgCl2, 4 mM 2-oxoglutarate, 0.1 mM pyridoxal-5′-phosphate (PLP), 0.25 mM NADH, (optionally 5 mM fructose-1,6-bisphosphate) (all products from Sigma), 4 Units/mL of auxiliary 2-hydroxyacid dehydrogenase, and appropriate amounts of purified aminotransferase or cell extract. […]
(§6) Enzymatic assays were carried out at 37° C. in 96-well flat bottomed microtiter plates in a final volume of 250 μL. The reactions were followed by the characteristic absorption of NAD(P)H at 340 nm (εNADPH=6.22 mM^−1 cm^−1) in a microplate reader (BioRad 680XR).

[2] = homoserine transaminase activity, coupled dehydrogenase assay; conditions: measured at 50 mM homoserine; 2-oxoglutarate as acceptor
Description: as §1, §2, §3, §4
The reaction mixture contained 60 mM Hepes (pH 7), 50 mM potassium chloride, 5 mM MgCl2, 4 mM 2-oxoglutarate, 0.1 mM pyridoxal-5′-phosphate (PLP), 0.25 mM NADH, (optionally 5 mM fructose-1,6-bisphosphate) (all products from Sigma), 4 Units/mL of auxiliary 2-hydroxyacid dehydrogenase, and appropriate amounts of purified aminotransferase or cell extract. The auxiliary dehydrogenase enzyme was purified PanE from L. lactis in case of the amino acids phenylalanine and leucine (Chambellon, Rijnen, Lorquet, Gitton, van HylckamaVlieg, Wouters, & Yvon, 2009), malate dehydrogenase (Sigma) in case of aspartate, and rabbit muscle (L)-lactate dehydrogenase (Sigma) when homoserine was used as the starting substrate. Reactions were started by adding 50 mM of the amino acid.
as §6

[3] = transaminase activity on preferred amino acid (A), coupled dehydrogenase assay; conditions: superscript (A); 50 mM amino acid; 2-oxoglutarate as acceptor
Description: as §1, §2, §3, §4, §5, §6

Molecule | Max. specific activity on preferred amino acid (L) [1] | Max. specific activity on Homoserine [2] | Max. specific activity on preferred amino acid (A) [3]
B1 | 10.3^(L) μmol/(min mgprot) | 0.077 μmol/(min mgprot) | –
B2 | – | 0.082 μmol/(min mgprot) | 74.031^(A) μmol/(min mgprot)
